This is an account of results in article PMC3721678.

Assay in all cases: SPR
A general note: Surface plasmon resonance follows binding to a sensor surface in real time, without labels.

Assay [1] deals with Hinge region glycopeptide (HR-GalNAc) (human).
Assay [2] addresses monomeric IgA1Mce myeloma protein (human).
Assay [3] concerns the target monomeric IgA1κ myeloma protein (human).
Assay [4] deals with monomeric IgA1λ myeloma protein (human).
In assay [5] the target is polymeric IgA1Ale myeloma protein (human).
Assay [6] addresses polymeric IgA1Mce myeloma protein (human).
For assay [7], the target named is polymeric IgA1κ myeloma protein (human).
Assay [8] deals with polymeric IgA1λ myeloma protein (human).
Assay [9] addresses IgA1-Fc Fc (Homo sapiens) (UniProt P01876). As to conditions: cited from earlier work.

Chain of IgA1-Fc Fc (Homo sapiens) (P01876 120-340): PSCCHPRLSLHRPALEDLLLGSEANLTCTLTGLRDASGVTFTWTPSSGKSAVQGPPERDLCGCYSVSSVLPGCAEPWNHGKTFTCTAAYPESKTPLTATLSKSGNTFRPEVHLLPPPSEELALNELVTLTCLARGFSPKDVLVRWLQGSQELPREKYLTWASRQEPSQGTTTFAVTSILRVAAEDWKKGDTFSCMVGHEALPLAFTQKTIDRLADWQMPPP
Chain of FcαRI (P24071 22-287): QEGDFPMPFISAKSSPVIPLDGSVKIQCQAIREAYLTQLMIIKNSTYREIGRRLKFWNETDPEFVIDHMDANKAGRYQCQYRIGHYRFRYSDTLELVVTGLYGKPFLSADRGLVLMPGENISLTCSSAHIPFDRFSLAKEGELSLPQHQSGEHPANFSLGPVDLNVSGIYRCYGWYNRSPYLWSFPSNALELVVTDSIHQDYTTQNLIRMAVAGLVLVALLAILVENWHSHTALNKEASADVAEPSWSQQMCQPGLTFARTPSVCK

In the case of “Helix pomatia agglutinin (natural protein)”, the KD1 (two-site model, apparent) in assay [1] was 0.045 µM; in [2] it was 2.3 µM; in assay [3] it was 0.76 µM; in assay [4] it was 1.8 µM; in assay [5], 0.58 µM; in assay [6], 1.1 µM. Moreover, the KD1 (two-site model, apparent) in assay [7] is 0.65 µM; in [8], 1.1 µM. For the same substance, the KD2 (two-site model, apparent) in assay [1] is 2.3 µM; in assay [2] it was 24 µM; in assay [3], 10 µM; in assay [4] it was 21 µM; in [5], 6 µM; in assay [6] it was 7 µM. In addition, the KD2 (two-site model, apparent) in assay [7] turned out to be 11 µM; in [8], 5 µM.

The term Kd denotes the constant that tells how readily two partners part at equilibrium. Take FcαRI (from UniProt P24071): in assay [9], the dissociation constant (Kd) is 9 nM.

Regarding “Helix aspersa agglutinin (natural protein)”, the KD1 (two-site model, apparent) in [1] stood at 0.11 µM; in [2] it was 7.2 µM; in assay [3], 1.8 µM; in assay [4] it was 6.2 µM; in assay [5] it was 1 µM; in [6], 5.6 µM. In addition, the KD1 (two-site model, apparent) is 1.7 µM in assay [7] and 3 µM in [8]. The KD2 (two-site model, apparent) turned out to be 7 µM in assay [1]; 76 µM in [2]; 8 µM in assay [3]; 73 µM in [4]; 14 µM in assay [5]; 70 µM in assay [6]. The KD2 (two-site model, apparent) in assay [7] turned out to be 25 µM; in assay [8], 28 µM.
